# Data from publication PMC5093550.
# Legend:
# [1] = target: α-synuclein fibrils; test: microfluidic diffusional sizing; monomeric Alexa-568-β-synuclein incubated (15 min) with unlabelled α-synuclein fibrils at [α-synuclein fibrils]:[β-synuclein monomer] (M:M) of 5 and 40; conditions of the seeded kinetic experiments (pH 6.5); degree of binding estimated from the effective hydrodynamic radius
# [2] = target: α-synuclein fibrils; test: fluorescence spectroscopy of the fibrils formed; seeded fibrils formed with unlabelled monomeric α-synuclein and monomeric Alexa-568-β-synuclein, compared with fibrils formed with Alexa-568-α-synuclein; pH 6.5
substance,measurement,setting,value
"Alexa-568-β-synuclein, monomeric (from UniProt Q16143 1-134) (natural protein)",degree of binding at [α-synuclein fibrils]:[β-synuclein monomer] ratio 5,[1],< 5%
same,degree of binding at [α-synuclein fibrils]:[β-synuclein monomer] ratio 40,[1],10%
same,degree of incorporation into the fibrils,[2],< 3%
